The values that follow come from patent US20170283834A1, “Processes for Producing A Fermentation Product Using A Fermenting Organism” (Novozymes A/S, priority 2014, published 2017).

Common to all, as to assay type: biochemical
Series [1] has as its system azo-casein. In words: Remaining activity assay of protease variants (azo-casein). To be noted: 10 min at 84° C., pH 4.5, 4° C. as reference. On the procedure: Yeast clones on SC-glucose were inoculated to a well of a 96-well micro titre plate and cultivated at 28° C. for 3 days. Protease activity was measured at 65° C. using azo-casein (Megazyme) after incubating the culture supernatant in 20 mM sodium acetate buffer, pH 4.5, for 10 min at a certain temperature (80° C. or 84° C. with 4° C. as a reference) to determine the remaining activity. The clones with higher remaining activity than the parental variant were selected and the sequence was determined.
20 microL of samples were mixed with 150 microL of substrate solution (4 ml of 12.5% azo-casein in ethanol in 96 ml of 20 mM sodium acetate, pH 4.5, containing 0.01% triton-100 and 0.25 mM ZnSO4) and incubated for 4 hours or longer.
After adding 20 microL/well of 100% trichloroacetic acid (TCA) solution, the plate was centrifuge and 100 microL of supernatants were pipette out to measure A440.

The test system of series [2] is zein. In words: Relative activity assay of protease variants (zein micro titer plate). In short, it runs like this: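 Yeast culture supernatants (3 days, 28 °C) incubated over 4 h or overnight on zein-agar plates (pH 4.5 acetate, 0.25 mM ZnSO4) at two temperatures. Zein turbidity read at A630; higher/lower-temperature activity ratio gives relative thermoactivity.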

Series [3] concerns zein. Put plainly: Zein-BCA assay, temperature profile of purified protease variants. On the procedure:
Selected variants showing good thermo-stability were purified and the purified enzymes were used in a zein-BCA assay as described below. The remaining protease activity was determined at 60° C. after incubation of the enzyme at elevated temperatures as indicated for 60 min.
Zein-BCA assay was performed to detect soluble protein quantification released from zein by variant proteases at various temperatures.
• 1) Mix 10 ul of 10 ug/ml enzyme solutions and 100 ul of 0.025% zein solution in a micro titer plate (MTP). • 2) Incubate at various temperatures for 60 min. • 3) Add 10 ul of 100% trichloroacetic acid (TCA) solution. • 4) Centrifuge MTP at 3500 rpm for 5 min. • 5) Take out 15 ul to a new MTP containing 100 ul of BCA assay solution (Pierce Cat#:23225, BCA Protein Assay Kit). • 6) Incubate for 30 min. at 60° C. • 7) Measure A562.

[4] abbreviates: Sample incubated 60 min at 60° C.
[5] abbreviates: Sample incubated 60 min at 70° C.
Setting [6] is: Sample incubated 60 min at 75° C.
[7] abbreviates: Sample incubated 60 min at 80° C.
The mark [8] stands for this setting: Sample incubated 60 min at 85° C.
The mark [9] stands for this setting: Sample incubated 60 min at 90° C.
Where [10] appears, read: Sample incubated 60 min at 95° C.

B1: JTP092: protease variant of SEQ ID NO: 3: ΔS5/N26R/D79L/S87P/A112P/D142L (protein, listed as Thermoascus aurantiacus)
chain: MRLVASLTALVALSVPVFPAAVNVKRASSYLEITLSQVSNTLIKAVVQNTGSDELSFVHLNFFKDPAPVKKVSVYRDGSEVQFEGILSRYKSTGLSRDAFTYLAPGESVEDVFDIASTYDLTSGGPVTIRTEGVVPYATANSTDIAGYISYSSNVLTIDVDGAAAATVSKAITPLDRRTRISCSGSRQSALTTALRNAASLARAAADAAQSGSASKFSEYFKTTSSSTRQTVAARLRAVAREASSSSSGATTYYCLDPYGYCSPNVLAYTLPSYNIIANCDIFYTYLPPLTSTCHAQDQATTALHEFTHAPGVYSPGTLDLAYGYQAAMGLSSSQAVMNADTYALYANAIYLGC
Turning to B1, the “Remaining activity 84° C.” value in series [1] was found to be 60%.

B2: WT: wild type Thermoascus aurantiacus M35 metallo protease, mature peptide amino acids 1 to 177 of SEQ ID NO: 3, no substitution (protein, listed as Thermoascus aurantiacus)
chain: MRLVASLTALVALSVPVFPAAVNVKRASSYLEITLSQVSNTLIKAVVQNTGSDELSFVHLNFFKDPAPVKKVSVYRDGSEVQFEGILSRYKSTGLSRDAFTYLAPGESVEDVFDIASTYDLTSGGPVTIRTEGVVPYATANSTDIAGYISYSSNVLTIDVDGAAAATVSKAITPLDR
On to B2, for which the “Relative activity 65° C./60° C.” value in series [2] (Table 2) is 31%. In series [2] (Table 3), the “Relative activity 70° C./65° C.” value came to 59%. Besides, the “Relative activity 75° C./65° C.” value in series [2] (Table 3) was found to be 17%. In addition, the “Bovine serum albumin equivalent peptide released” value worked out at 94 µg/mL in series [3] (setting [4]); 103 µg/mL in series [3] (setting [5]); 107 µg/mL in series [3] (setting [6]); 93 µg/mL in series [3] (setting [7]); 58 µg/mL in series [3] (setting [8]); 38 µg/mL in series [3] (setting [9]).

B3: JTP050: protease variant of SEQ ID NO: 3: D79L/S87P/A112P/D142L (protein, listed as Thermoascus aurantiacus)
chain: MRLVASLTALVALSVPVFPAAVNVKRASSYLEITLSQVSNTLIKAVVQNTGSDELSFVHLNFFKDPAPVKKVSVYRDGSEVQFEGILSRYKSTGLSRDAFTYLAPGESVEDVFDIASTYDLTSGGPVTIRTEGVVPYATANSTDIAGYISYSSNVLTIDVDGAAAATVSKAITPLDRRTRISSCSGSRQSALTTALRNAASLANAAADAAQSGSASKFSEYFKTTSSSTRQTVAARLRAVAREASSSSSGATTYYCLDPYGYCSPNVLAYTLPSYNIIANCDIFYTYLPPLTSTCHAQDQATTALHEFTHAPGVYSPGTLDLAYGYQAAMGLSSSQAVMNADTYALYANAIYLGC
For the molecule B3, in series [2] (Table 3), the “Relative activity 75° C./65° C.” value is recorded as 88%. Besides, the “Relative activity 75° C./70° C.” value in series [2] (Table 5, upper part) worked out at 55%. Further, in series [2] (Table 5, upper part), the “Relative activity 80° C./70° C.” value was 23%. Further, in series [2] (Table 5, upper part), the “Relative activity 85° C./70° C.” value is 9%. Also, the “Bovine serum albumin equivalent peptide released” value is 86 µg/mL in series [3] (setting [4]); 101 µg/mL in series [3] (setting [5]); 107 µg/mL in series [3] (setting [6]); 107 µg/mL in series [3] (setting [7]); 104 µg/mL in series [3] (setting [8]); 63 µg/mL in series [3] (setting [9]). Also, in series [3] (setting [10]), the “Bovine serum albumin equivalent peptide released” value is 36 µg/mL.

B4: JTP188: protease variant of SEQ ID NO: 3: D79L Y82F S87G D104P A112P D142L (protein, listed as Thermoascus aurantiacus)
chain: MRLVASLTALVALSVPVFPAAVNVKRASSYLEITLSQVSNTLIKAVVQNTGSDELSFVHLNFFKDPAPVKKVSVYRDGSEVQFEGILSRYKSTGLSRDAFTYLAPGESVEDVFDIASTYDLTSGGPVTIRTEGVVPYATANSTDIAGYISYSSNVLTIDVDGAAAATVSKAITPLDRRTRISSCSGSRQSALTTALRNAASLANAAADAAQSGSASKFSEYFKTTSSSTRQTVAARLRAVAREASSSSSGATTYYCLDPFGYCSGNVLAYTLPSYNIIANCPIFYTYLPPLTSTCHAQDQATTALHEFTHAPGVYSPGTLDLAYGYQAAMGLSSSQAVMNADTYALYANAIYLGC
Regarding B4, the “Relative activity 80° C./70° C.” value in series [2] (Table 5, upper part) was determined as 43%. In addition, the “Bovine serum albumin equivalent peptide released” value in series [3] (setting [4]) was determined as 71 µg/mL; in series [3] (setting [5]) it was 83 µg/mL; in series [3] (setting [6]), 86 µg/mL; in series [3] (setting [7]), 93 µg/mL; in series [3] (setting [8]), 100 µg/mL; in series [3] (setting [9]), 75 µg/mL. In series [3] (setting [10]), the “Bovine serum albumin equivalent peptide released” value came out at 53 µg/mL.

B5: JTP077: protease variant of SEQ ID NO: 3: A27K/D79L/S87P/A112P/D142L (protein, listed as Thermoascus aurantiacus)
chain: MRLVASLTALVALSVPVFPAAVNVKRASSYLEITLSQVSNTLIKAVVQNTGSDELSFVHLNFFKDPAPVKKVSVYRDGSEVQFEGILSRYKSTGLSRDAFTYLAPGESVEDVFDIASTYDLTSGGPVTIRTEGVVPYATANSTDIAGYISYSSNVLTIDVDGAAAATVSKAITPLDRRTRISSCSGSRQSALTTALRNAASLANKAADAAQSGSASKFSEYFKTTSSSTRQTVAARLRAVAREASSSSSGATTYYCLDPYGYCSPNVLAYTLPSYNIIANCDIFYTYLPPLTSTCHAQDQATTALHEFTHAPGVYSPGTLDLAYGYQAAMGLSSSQAVMNADTYALYANAIYLGC
Consider B5, for which the “Relative activity 75° C./65° C.” value in series [2] (Table 3) was 106%. Besides, the “Bovine serum albumin equivalent peptide released” value in series [3] (setting [4]) is 82 µg/mL; in series [3] (setting [5]) it was 94 µg/mL; in series [3] (setting [6]), 104 µg/mL; in series [3] (setting [7]) it was 105 µg/mL; in series [3] (setting [8]), 99 µg/mL; in series [3] (setting [9]), 56 µg/mL. Moreover, the “Bovine serum albumin equivalent peptide released” value in series [3] (setting [10]) turned out to be 31 µg/mL.

B6: JTP095: protease variant of SEQ ID NO: 3: N26R/T46R/D79L/S87P/A112P/D142L (protein, listed as Thermoascus aurantiacus)
chain: MRLVASLTALVALSVPVFPAAVNVKRASSYLEITLSQVSNTLIKAVVQNTGSDELSFVHLNFFKDPAPVKKVSVYRDGSEVQFEGILSRYKSTGLSRDAFTYLAPGESVEDVFDIASTYDLTSGGPVTIRTEGVVPYATANSTDIAGYISYSSNVLTIDVDGAAAATVSKAITPLDRRTRISSCSGSRQSALTTALRNAASLARAAADAAQSGSASKFSEYFKRTSSSTRQTVAARLRAVAREASSSSSGATTYYCLDPYGYCSPNVLAYTLPSYNIIANCDIFYTYLPPLTSTCHAQDQATTALHEFTHAPGVYSPGTLDLAYGYQAAMGLSSSQAVMNADTYALYANAIYLGC
For the molecule B6, in series [1], the “Remaining activity 84° C.” value is 62%.

B7: JTP196: protease variant of SEQ ID NO: 3: A27K D79L Y82F S87G D104P A112P A126V D142L (protein, listed as Thermoascus aurantiacus)
chain: MRLVASLTALVALSVPVFPAAVNVKRASSYLEITLSQVSNTLIKAVVQNTGSDELSFVHLNFFKDPAPVKKVSVYRDGSEVQFEGILSRYKSTGLSRDAFTYLAPGESVEDVFDIASTYDLTSGGPVTIRTEGVVPYATANSTDIAGYISYSSNVLTIDVDGAAAATVSKAITPLDRRTRISSCSGSRQSALTTALRNAASLANKAADAAQSGSASKFSEYFKTTSSSTRQTVAARLRAVAREASSSSSGATTYYCLDPFGYCSGNVLAYTLPSYNIIANCPIFYTYLPPLTSTCHAQDQATTVLHEFTHAPGVYSPGTLDLAYGYQAAMGLSSSQAVMNADTYALYANAIYLGC
Regarding B7, in series [2] (Table 5, lower part), the “Relative activity 75° C./70° C.” value is 102%. For the same molecule, in series [2] (Table 5, lower part), the “Relative activity 80° C./70° C.” value is listed as 55%. In addition, the “Relative activity 85° C./70° C.” value in series [2] (Table 5, upper part) is given as 18%. In addition, the “Bovine serum albumin equivalent peptide released” value was 87 µg/mL in series [3] (setting [4]); 99 µg/mL in series [3] (setting [5]); 103 µg/mL in series [3] (setting [6]); 106 µg/mL in series [3] (setting [7]); 117 µg/mL in series [3] (setting [8]); 90 µg/mL in series [3] (setting [9]). In addition, in series [3] (setting [10]), the “Bovine serum albumin equivalent peptide released” value was determined as 38 µg/mL.
